According to US20090068202A1 (Genentech, published 2009):
Values belong to the binder of their own block, whether it stands above or below them. No end group written: not given here.

Experiments:
[1] = target: T1, extracellular domain of human CD79b (huCD79becd) (human, UniProt P40259 29-159); assay: Biacore surface plasmon resonance; huCD79becd immobilized on CM5 chip, IgG injected
T1 construct: Expressed in CHO cells
T1 sequence: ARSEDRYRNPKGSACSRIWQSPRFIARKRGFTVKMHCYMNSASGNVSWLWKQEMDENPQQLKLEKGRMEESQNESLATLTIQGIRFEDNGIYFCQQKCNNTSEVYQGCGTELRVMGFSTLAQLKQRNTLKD
Procedure: (§1) Binding of Fab and IgG variants of ch2F2, the 2F2-grafted “humanized” antibody (hu2F2 graft) or 2F2-grafted “humanized” antibody variant 7 (hu2F2.D7) to immobilized huCD79becd or CD79b-Fc or the 16 amino acid peptide containing the epitope for 2F2 was measured by surface plasma resonance. Affinity determinations were performed by surface plasmon resonance using a BIAcore™-2000. The antigen, huCD79becd or huCD79b-Fc was immobilized (approximately 50-200 RU) in 10 mM sodium acetate pH 4.8 on a CM5 sensor chip. In experiments that measured binding to the 16 amino acid peptide ([…]) (SEQ ID NO: 78) containing the epitope (amino acids 1-11 of SEQ ID NO: 78) for 2F2, the biotinylated peptide was captured (approximately 20 RU) on a streptavidin coated sensor chip. Purified 2F2-grafted “humanized” antibody variant (as Fab or IgG) (a 2-fold serial dilution of 0.5 to 1000 nM in PBST) was injected at a flow rate of 30 μL/min. Each sample was analyzed with 4-minute association and 10-minute disassociation. After each injection the chip was regenerated using 10 mM Glycine pH 1.7.
(§2) Binding response was corrected by subtracting a control flow cell from 2F2-grafted “humanized” antibody variant (as Fab or IgG) flow cells. A 1:1 Languir model of simultaneous fitting of kₒₙ and koff was used for kinetics analysis.

[2] = target: T2, extracellular domain of human CD79b fused to Fc (huCD79becd-Fc) (human, UniProt P40259 29-159); assay: Biacore surface plasmon resonance; huCD79becd-Fc immobilized on CM5 chip, IgG injected
T2 construct: Expressed in CHO cells; also called huCD79b-Fc; CD79b-Fc
T2 sequence: T1 sequence
Procedure: as §1, §2

[3] = target: T3, 16 amino acid peptide (ARSEDRYRNPKGSACK) containing the epitope for 2F2 (human, also: biotinylated, site not given here); assay: Biacore surface plasmon resonance; biotinylated peptide captured on streptavidin chip, IgG injected; the sheet names the antigen '15mer peptide', legend and text name only the 16mer peptide (SEQ ID NO: 78)
T3 construct: Synthetic peptide; Captured as biotinylated peptide on a streptavidin sensor chip; also called 16mer peptide; test peptide
T3 peptide: ARSEDRYRNPKGSACK
Procedure: as §1, §2

[4] = target: T4, human CD79b on BJAB cells (human, UniProt P40259 29-229); assay: Scatchard analysis, I-125 tracer competed by unlabeled IgG on BJAB cells stably expressing cynomolgus CD79b and endogenous human CD79b; ch2F2 IgG; BJAB cells stably expressing cynomolgus CD79b and endogenous human CD79b
T4 construct: Endogenous CD79b of BJAB cells; also called PRO36249; endogenous human-CD79b
T4 sequence: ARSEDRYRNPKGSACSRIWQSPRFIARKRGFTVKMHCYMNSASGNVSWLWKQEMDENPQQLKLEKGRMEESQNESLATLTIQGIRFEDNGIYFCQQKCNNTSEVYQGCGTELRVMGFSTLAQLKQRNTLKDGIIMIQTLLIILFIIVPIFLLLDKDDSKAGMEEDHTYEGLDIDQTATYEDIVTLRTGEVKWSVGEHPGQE
Procedure: (§3) To further determine binding of the IgG variants of the 2F2-graft “humanized” antibody variant 7 (hu2F2.D7) having changes in HVR-L3, binding of iodinated anti-CD79b (with the same epitope as ch2F2) to BJAB cells expressing human CD79b and cynomologous CD79b using competition with unlabeled ch2F2 was analyzed and Scatchard analysis was performed.
(§4) For Scatchard analysis, 0.5 nM I¹²⁵ labeled anti-human CD79b with the same epitope as ch2F2 or 0.5 nM I¹²⁵ labeled 2F2-graft “humanized” antibody variant 7 (hu2F2.D7) was competed against unlabeled ch2F2 or hu2F2.D7, respectively, ranging from 50 to 0.02 nM (12 step 1:2 serial dilution) in the presence of a transfected BJAB line stably expressing cynomologous-CD79b and endogenous human-CD79b. After a four hour incubation at 4° C., cells were washed and cell pellet counts were read by a gamma counter (1470 WIZARD Automatic Gamma Counter; Perkin Elmer, Walthem, Mass.). All points were done in triplicate and counted for 10 minutes. The average CPM was used for Kd calculation using the New Ligand (Genentech, South San Francisco, Calif.) program.

[5] = target: T1, extracellular domain of human CD79b …; assay: Biacore surface plasmon resonance; huCD79becd immobilized on CM5 chip, Fab injected
Procedure: as §1, §2

[6] = target: T3, 16 amino acid peptide …; assay: Biacore surface plasmon resonance; biotinylated 16mer peptide captured on streptavidin chip, IgG injected
Procedure: as §1, §2

[7] = target: T4, human CD79b on BJAB cells; assay: Scatchard analysis, I-125 hu2F2.D7 competed by unlabeled hu2F2.D7 IgG on BJAB cells stably expressing cynomolgus CD79b and endogenous human CD79b; hu2F2.D7 reformatted as IgG; BJAB cells stably expressing cynomolgus CD79b and endogenous human CD79b
Procedure: as §3, §4

- Kd [1]: 1.4 nM
- Kd [2]: 2.7 nM
- Kd [3]: 2 nM
- Kd [4]: 0.99 nM
B1: chimeric 2F2 antibody (ch2F2) IgG1 (antibody, V domains shown)
VH: QVQLQQPGAELVRPGASVKLSCKASGYTFTSYWMNWVKQRPGQGLEWIGMIDPSDSETHYNHIFKDKATLTVDKSSSTAYLQLSSLTSEDSAVYYCARNLYLWGQGTSVTVSL
VL: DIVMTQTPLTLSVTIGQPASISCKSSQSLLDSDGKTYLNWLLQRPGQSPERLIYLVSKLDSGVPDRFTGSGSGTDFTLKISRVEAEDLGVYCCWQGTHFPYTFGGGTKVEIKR

- Kd [5]: 68 nM
B2: hu 2F2.D7 (Fab column) (Fab, V domains shown)
VH: EVQLVESGGGLVQPGGSLRLSCAASGYTFTSYWMNWVRQAPGKGLEWVGMIDPSDSETHYNHIFKDRFTISADTSKNTAYLQMNSLRAEDTAVYYCARNLYLWGQGTLVTVSS
VL: DIQMTQSPSSLSASVGDRVTITCKSSQSLLDSDGKTYLNWYQQKPGKAPKLLIYLVSKLDSGVPSRFSGSGSGTDFTLTISSLQPEDFATYYCFQGTHFPFTFGQGTKVEIKR
notes: also called 2F2-grafted humanized antibody variant 7 as purified Fab; copies: 1 + 1

- Kd [1]: 3.9 nM
- Kd [6]: 2.7 nM
- Kd [7]: 2 nM
B3: 2F2-grafted "humanized" antibody variant 7 (hu2F2.D7), reformatted as IgG (antibody, V domains shown)
VH: B2 VH
VL: B2 VL
notes: also called humanized 2F2.D7
